± gives the uncertainty stated by the source.
Experiment: protein stability index of a GFP-peptide fusion (yeast GPS) (PSI 1-4); higher = more stable; sorted into four equal gates, so the index is relative within each strain
Details: pdr5∆
How it was run: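 The protein stability index of a peptide was calculated by multiplying its read frequency in each gate by that gate's number and adding the products. The peptides were tiled 17-residue stretches of yeast proteins, fused downstream of GFP on a Cherry-expressing plasmid and carried in yeast as a pooled library. Mid-log cultures in leucine-free medium were sorted into four equal gates by GFP/Cherry ratio, and each gate's plasmids were PCR-amplified and Illumina-sequenced.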

Row | Sequence | protein stability index
1 | RAYLSHSNRCIVFSKKE [CSN12] | 1.56 ± 0.062
2 | RCLVAVIQQDKYQKALH [SRP72] | 2.23 ± 0.07
3 | RDDLFVRNLQGIQEVVH [NUT1] | 3.2 ± 0.094
4 | RDLILKKGEYARFKSKD [SMC3] | 2.72 ± 0.18
5 | REDLNKAEYVDQYDAER [RPO31] | 3.11 ± 0.11
6 | REFLKVDQEMLYEIILA [SKP1] | 2.85 ± 0.065
7 | REHERVILKQILQILDQ [SWP82] | 2.86 ± 0.066
8 | REHFEKTVAVDSVFEQN [RPL3] | 2.93 ± 0.18
9 | REIVMPAHTKYMLIEEA [ITC1] | 3.42 ± 0.1
10 | RELYKYVRKHDPLNSNI [PRP28] | 2.86 ± 0.082
11 | REQASKSKKSWLNRLNN [YMR153W/NUP53] | 2.45 ± 0.099
12 | RESTKALTRGEALLVVL [RPS12] | 3.49 ± 0.16
13 | REVGTKFTTVLAKILAR [ECM29] | 1.52 ± 0.06
14 | RFAPDNQVTDSSQLNKL [SIR3] | 3.1 ± 0.11
15 | RFNFISKYFIIDSFFLY [YMR129W/POM152] | 1.24 ± 0.072
16 | RFQDPYVAIVVDPLKSL [RRI1] | 2.79 ± 0.13
17 | RGFNNQIMQLKKICNHP [SNF2] | 3.15 ± 0.067
18 | RGKDCTVVISQKKVPDK [SCL1] | 2.83 ± 0.076
19 | RGRNDTLERVHLSYCSN [GRR1] | 3.2 ± 0.068
20 | RHQQLLRSRLQQQQQQQ [SNF5] | 2.54 ± 0.078
21 | RIFISNVSENQPWQMDT [SNF12] | 3.17 ± 0.072
22 | RIGRIEDVTPVPSDSTR [RPS14A] | 3.15 ± 0.065
23 | RIIREMFAYAKEHEPCI [RPT4] | 2.65 ± 0.12
24 | RIKNEQSALSQIIRLFY [ISW2] | 3.09 ± 0.1
25 | RIQKIISKRKEELEEEF [YIL149C/MLP2] | 2.47 ± 0.13
26 | RKDLRDKLICSIDPPGC [DIS3] | 2.91 ± 0.047

Row | Sequence | protein stability index
27 | RKEGPTIYYVDSDGTRL [PRE2] | 1.9 ± 0.034
28 | RKHPGGRGMAGGQHHHR [RPL28] | 2.6 ± 0.26
29 | RKHTRGDVSSGLFEKST [BRN1] | 3.27 ± 0.1
30 | RKIEAETRNGKVKNQGA [YCS4] | 3.43 ± 0.12
31 | RKIEFPSLRDRRERRLI [RPT3] | 3.34 ± 0.086
32 | RKIGISIDDHPYNLNLF [RPC31] | 2.04 ± 0.05
33 | RKILNFKKDLVIVLSNI [SWI1] | 2.25 ± 0.07
34 | RKIVFRCSECIKILGSE [RPN4] | 1.88 ± 0.25
35 | RKKTEAVARLKSMNKSA [SNF2] | 2.17 ± 0.085
36 | RKNYMHVKNFGFANSLT [YML031W/NDC1] | 1.9 ± 0.11
37 | RKSDQQDVLKGSSASSR [POP1] | 3.06 ± 0.1
38 | RKSVFAPLNFNPIIENN [SSN2] | 2.98 ± 0.073
39 | RKVVKPSSLNSDKIPYV [SRB4] | 3.23 ± 0.13
40 | RLAAPHHWLLDKLSGCY [RPS4A] | 2.2 ± 0.1
41 | RLEEESSWQIYSDENDP [RRP4] | 2.93 ± 0.16
42 | RLFNNVKIHSQESLLSR [SRP72] | 2 ± 0.06
43 | RLGSFTRAKAKVEEMNN [RPL36A] | 2.61 ± 0.2
44 | RLLPINVNKKALGQDTE [MED11] | 2.96 ± 0.062
45 | RLNFNQNSSKIVNVLSK [SWI3] | 2.7 ± 0.051
46 | RLPTFLKHKSICSCVNR [RPP1] | 2.24 ± 0.11
47 | RLRALQLYFQKNGAQDL [RRI2] | 1.95 ± 0.076
48 | RLTVSARDAPTKISTLA [QCR2] | 3.17 ± 0.069
49 | RLVIKEALVERRRAFKR [RPB4] | 2.67 ± 0.14
50 | RLWHTLKYYQDLKNTRM [SNF5] | 2.02 ± 0.048
51 | RMMGCVKKQKSARGIET [FAS2] | 1.4 ± 0.1
52 | RMRLRALETENMEIRNL [GRR1] | 3.02 ± 0.051

Row | Sequence | protein stability index
53 | RMSIKLLRLASKSTSMK [POP1] | 2.6 ± 0.047
54 | RMTIRTRGRSATIRETY [RRP43] | 2.64 ± 0.061
55 | RNNHNSNTSTSKMLDAA [SNF12] | 3.04 ± 0.044
56 | RNNSNNKTSNNNNVTAV [SWI1] | 2.6 ± 0.054
57 | RNPARLMETLRTLRRKG [RPB2] | 3.06 ± 0.086
58 | RNSFIRDMIMKRNSDKV [ITC1] | 2.86 ± 0.14
59 | RNSLETKLTTCKRELAF [YIL149C/MLP2] | 1.99 ± 0.077
60 | RNVVEDINQAKDFIENV [BRN1] | 3.31 ± 0.097
61 | RPTGGANMATVPSTTNV [MED6] | 2.93 ± 0.06
62 | RQCFREKANDIGFNKFR [RPS29A] | 3.3 ± 0.13
63 | RQELQMQRQQQGISGSQ [SNF2] | 2.95 ± 0.046
64 | RQFLHELRRPGVDNLRR [RPO31] | 1.37 ± 0.097
65 | RQLSPHTLMSFAGEAGD [PRE1] | 1.87 ± 0.057
66 | RQQQQRSILQSLNPALQ [SWI1] | 1.92 ± 0.06
67 | RRANFYKENEAMLRENI [SNF12] | 3.2 ± 0.14
68 | RREVQIQLQEFLLSAMT [NSL1] | 1.68 ± 0.11
69 | RRLHKVLRPFLLRRLKK [SNF2] | 2.53 ± 0.1
70 | RRLLNLYNDNNKNNNNR [SWI1] | 2.86 ± 0.089
71 | RRNRYKTYYGIHCLAVR [RPN7] | 1.38 ± 0.073
72 | RRVKQLDDITDSNTTEI [SIR4] | 3.14 ± 0.072
73 | RSGALIKFKKCDGDTVW [SSN2] | 2.9 ± 0.048
74 | RSLCEVLVYDDKLEKVT [RPC34] | 2.62 ± 0.1
75 | RSLDENRLEIKYHNDLI [SMC1] | 3.2 ± 0.29
76 | RSLGLQQVVCIFSYGPH [POP6] | 1.7 ± 0.037
77 | RSMIEHARTAAVTHNLY [PUP2] | 2.98 ± 0.22
78 | RSNQYQRGKMHGLKQLR [NUT2] | 2.91 ± 0.078

Row | Sequence | protein stability index
79 | RSNTGALMRCSFEETVE [RPO21] | 3.02 ± 0.077
80 | RSPLVTPMDESSYDLLF [SRP72] | 3.06 ± 0.1
81 | RSQISEKDAKINKLMEK [SIR4] | 3.12 ± 0.11
82 | RSRISSPHGLINLNVDD [SRB4] | 2.48 ± 0.061
83 | RSSEEINSDNQNIILRS [RPN3] | 3.24 ± 0.19
84 | RSTMMKFLKIASLKHDN [RPN3] | 2.43 ± 0.072
85 | RSTRIRTKSQVIEEDYD [IRR1] | 3.22 ± 0.082
86 | RTPYLTSLKKIKDEIDD [SWI1] | 2.66 ± 0.091
87 | RTQPWSIMPDLYFYRNP [RPS0B] | 2.85 ± 0.056
88 | RVEPETFEIPQAHEIVI [SWI3] | 2.84 ± 0.08
89 | RVGGGGTGRSGQGAFGN [RPL4A] | 3.52 ± 0.11
90 | RVNKNAPAVELHGNAKK [FAS2] | 3.14 ± 0.07
91 | RVRHEDVETVKREIQEA [RPC53] | 3 ± 0.17
92 | RVVYLKHLEDNTLLISG [RPL6A] | 2.62 ± 0.093
93 | RWKRFTIGAIFLNHAFD [CDC53] | 2 ± 0.069
94 | RYANKRFRKAQCPIIER [RPS5] | 2.12 ± 0.14
95 | RYDSNSGGEREIQRTML [RPT2] | 3.62 ± 0.096
96 | RYDYSDEVGRRSMLTVV [YCG1] | 1.73 ± 0.062
97 | RYNVEKVKRLMDFLEED [NSL1] | 1.26 ± 0.16
98 | RYQHLEKITQISLLCKN [PCI8] | 1.5 ± 0.051
99 | RYRVDLLNTDHTLDPSL [RPO21] | 2.95 ± 0.053
100 | SAAATPSLNKTINGKVN [GAL11] | 3.14 ± 0.041
101 | SAAKYKDMKLLRYYKNI [NUT1] | 2.2 ± 0.06
